Laboratory results: paper PMC9190012, “Heparin activation of protein Z-dependent protease inhibitor (ZPI) allosterically blocks protein Z activation through an extended heparin-binding site” (The Journal of Biological Chemistry, 2022)
Positions count from the first letter of the chain named. Names may count otherwise.

B1: D293A: ZPI mutant in the PZ-binding site hot spot residue (protein, UniProt Q9UK55 22-444, looked up, variant D293A)
Protein Z-dependent protease …: LAPSPQSPETPAPQNQTSRVVQAPKEEEEDEQEASEEKASEEEKAWLMASRQQLAKETSNFGFSLLRKISMRHDGNMVFSPFGMSLAMTGLMLGATGPTETQIKRGLHLQALKPTKPGLLPSLFKGLRETLSRNLELGLTQGSFAFIHKDFDVKETFFNLSKRYFDTECVPMNFRNASQAKRLMNHYINKETRGKIPKLFDEINPETKLILVDYILFKGKWLTPFDPVFTEVDTFHLDKYKTIKVPMMYGAGKFASTFDKNFRCHVLKLPYQGNATMLVVLMEKMGDHLALEAYLTTDLVETWLRNMKTRNMEVFFPKFKLDQKYEMHELLRQMGIRRIFSPFADLSELSATGRNLQVSRVLQRTVIEVDERGTEAVAGILSEITAYSMPPVIKVDRPFHFMIYEETSGMLLFLGRVVNPTLL
B2: R310A: ZPI helix H site mutant (protein, UniProt Q9UK55 22-444, looked up, variant R310A)
Protein Z-dependent protease …: B1 Protein Z-dependent protease … with A293D, R310A
B3: K260A/R263A: ZPI helix H site double mutant (protein, UniProt Q9UK55 22-444, looked up, variant K260A R263A)
Protein Z-dependent protease …: B1 Protein Z-dependent protease … with K260A, R263A, A293D
B4: K308A: ZPI helix H site mutant (protein, UniProt Q9UK55 22-444, looked up, variant K308A)
Protein Z-dependent protease …: B1 Protein Z-dependent protease … with A293D, K308A
B5: R305A: ZPI helix H site mutant (protein, UniProt Q9UK55 22-444, looked up, variant R305A)
Protein Z-dependent protease …: B1 Protein Z-dependent protease … with A293D, R305A
B6: WT: recombinant wild-type protein Z-dependent protease inhibitor (serpin A10) expressed in Escherichia coli (protein, UniProt Q9UK55 22-444, looked up)
Protein Z-dependent protease …: B1 Protein Z-dependent protease … with A293D
B7: K260A/R263A/K308A/R310A: ZPI helix H site quadruple mutant (protein, UniProt Q9UK55 22-444, looked up, variant K260A R263A K308A R310A)
Protein Z-dependent protease …: B1 Protein Z-dependent protease … with K260A, R263A, A293D, K308A, R310A

biological target: T1, FXa (Homo sapiens, UniProt P00742); assay: H50 heparin-accelerated ZPI–FXa reactions: kinetics and stoichiometry of inhibition; type: biochemical; settings: 1 μM H50
T1 construct: purchased Enzyme Research Laboratories
T1 sequence (P00742 235-488 limits assumed): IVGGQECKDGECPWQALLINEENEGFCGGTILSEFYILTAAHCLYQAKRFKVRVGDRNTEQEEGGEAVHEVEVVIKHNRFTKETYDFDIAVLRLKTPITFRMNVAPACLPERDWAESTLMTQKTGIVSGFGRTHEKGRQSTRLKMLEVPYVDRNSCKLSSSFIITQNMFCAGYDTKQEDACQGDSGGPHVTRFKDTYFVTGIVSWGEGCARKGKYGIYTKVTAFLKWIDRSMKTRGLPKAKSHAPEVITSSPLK
T1 sequence (P00742 41-179 limits assumed): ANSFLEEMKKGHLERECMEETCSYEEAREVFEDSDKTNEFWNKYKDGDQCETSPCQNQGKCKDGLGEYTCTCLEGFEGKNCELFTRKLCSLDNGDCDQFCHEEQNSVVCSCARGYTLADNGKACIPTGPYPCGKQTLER
Protocol: Heparin accelerating effects on the kinetics of ZPI–FXa reactions were evaluated as a function of heparin concentration under pseudo–first-order conditions (i.e., with a large molar excess of inhibitor over protease) by incubating reaction mixtures of 100 μl containing 70 nM ZPI and ∼0.5 nM FXa in the absence or presence of varying levels of H50 ranging from 10^−9 to 10^−4 M in 20 mM Tris buffer (pH 7.4), 0.1 M NaCl, 0.1% PEG 8000, 0.1 mg/ml BSA, and 2.5 mM CaCl2 at 25 °C for reaction times of 2 to 5 min. Reactions were quenched by adding 1 ml of 50 μM Pefafluor FXa substrate (Centerchem, Inc) containing 50 μg/ml polybrene and 5 mM EDTA. The initial linear rate of substrate hydrolysis was monitored at an excitation wavelength of 380 nm and an emission wavelength of 440 nm. The observed pseudo–first-order rate constant for reactions (kobs) was calculated from the equation, kobs=In([vo-v∞]/[vt-v∞])/t
where vt and v∞ are the initial velocities of protease hydrolysis of the substrate after reaction with ZPI for the fixed reaction time and after reaching the reaction end point, respectively, vo is the velocity measured in control reactions without ZPI, and t is the fixed reaction time. The dependence of kobs on heparin concentration was computer fit by nonlinear least squares analysis by the ternary complex bridging model equation ([10]).
(§1) Apparent second-order rate constants for unaccelerated and H50-accelerated ZPI–FXa reactions were measured in the absence and presence of the optimal H50 concentration under pseudo–first-order conditions by analyzing full ZPI–FXa reaction progress curves over the ZPI concentration range of 10 to 900 nM with ∼0.5 nM FXa. Full reaction progress curves were also measured for ZPI–FXa reactions in the presence of PZ equimolar with ZPI, 25 μM lipid, and 5 mM CaCl2, as a function of the ZPI concentration in the range of 10 to 40 nM. Identical reaction mixtures were quenched at varying reaction times with substrate, and the time course of protease inactivation was measured from the decrease in initial rates of substrate hydrolysis. The first-order rate of decrease in protease activity with time was computer fit by a single exponential decay function with a nonzero end point and kobs obtained from the fitted exponential decay constant. Apparent second-order association rate constants (ka,app) were obtained from the slopes of linear plots of kobs versus the ZPI concentration according to the equation, kobs=kd+ka,app × [ZPI]0
(§2) In which kd represents the rate constant for ZPI–FXa complex dissociation and [ZPI]o is the total ZPI concentration. kd was fixed at the experimentally determined value of 10^−4 s^−1 for WT and ZPI mutants as described ([18]).
Fixed concentrations of FXa (50–100 nM FXa) were reacted with increasing concentrations of ZPI, ranging from a approximately threefold to sevenfold molar excess, in the absence of cofactors or in the presence of either 1 μM H50 or PZ equimolar with ZPI, 25 μM lipid, and 5 mM CaCl2, in kinetics buffer at 25 °C in reaction volumes of 50 μl. After allowing sufficient time to reach a reaction end point, based on measured second-order associate rate constants (∼5–30 min), remaining proteolytic activity was measured by reacting an aliquot (5–20 μl) of the reaction mixtures with 1 ml of 100 μM Spectrozyme fXa (American Diagnostica) containing 50 μg/ml Polybrene and 5 mM EDTA and monitoring the rate of absorbance change at 405 nm. The apparent SI was determined from the fitted abscissa intercept of a linear plot of residual protease activity against the molar ratio of inhibitor to protease ([18]). Because the ZPI–PZ complex dissociates to a small extent over the reaction time, apparent SIs depend on the time of incubation. To correct for such complex dissociation, apparent SIs were multiplied by the factor, exp (−kd × t), where kd is the measured complex dissociation rate constant of 10^−4 s^−1 and t the fixed reaction time. […]

Row | Molecule | SI | ka,app × SI | ka,app × SI relative to WT
1 | B1 | 1.7 ± 0.1 moles ZPI/mole FXa | 8.5 ± 0.6 × 10^5 M^−1 s^−1 | (0.71)
2 | B2 | 1.9 ± 0.2 moles ZPI/mole FXa | 3.5 ± 0.5 × 10^5 M^−1 s^−1 | (0.29)
3 | B3 | 2.5 ± 0.4 moles ZPI/mole FXa | 2.9 ± 0.8 × 10^5 M^−1 s^−1 | (0.24)
4 | B4 | 2.2 ± 0.3 moles ZPI/mole FXa | 5.4 ± 0.9 × 10^5 M^−1 s^−1 | (0.45)
5 | B5 | 1.8 ± 0.1 moles ZPI/mole FXa | 5.3 ± 0.9 × 10^5 M^−1 s^−1 | (0.44)
6 | B6 | 2.4 ± 0.1 moles ZPI/mole FXa | 1.2 ± 0.2 × 10^6 M^−1 s^−1 | (1)
7 | B7 | 4.1 ± 0.6 moles ZPI/mole FXa | 7.6 ± 1.3 × 10^4 M^−1 s^−1 | (0.06)

same assay, conditions: 1 μM H50, 2.5 mM CaCl2, pH 7.4, 25 °C

Row | Molecule | ka,app
8 | B1 | 5.0 ± 0.2 × 10^5 M^−1 s^−1
9 | B2 | 1.8 ± 0.1 × 10^5 M^−1 s^−1
10 | B3 | 1.2 ± 0.1 × 10^5 M^−1 s^−1
11 | B4 | 2.4 ± 0.1 × 10^5 M^−1 s^−1
12 | B5 | 2.9 ± 0.3 × 10^5 M^−1 s^−1
13 | B6 | 5.1 ± 0.4 × 10^5 M^−1 s^−1
14 | B7 | 1.8 ± 0.1 × 10^4 M^−1 s^−1

same assay, conditions: ratio of heparin-accelerated to unaccelerated ka,app × SI

Row | Molecule | H50 rate enhancement
15 | B2 | ~35 fold
16 | B3 | ~22 fold
17 | B4 | ~32 fold
18 | B5 | ~29 fold
19 | B6 | ~75 fold
20 | B7 | ~17 fold

biological target: T1, FXa; assay: PZ-accelerated ZPI–FXa reactions: kinetics and stoichiometry of inhibition; type: biochemical; settings: PZ-accelerated
Protocol: as §1, §2
(§3) Fixed concentrations of FXa (50–100 nM FXa) were reacted with increasing concentrations of ZPI, ranging from a approximately threefold to sevenfold molar excess, in the absence of cofactors or in the presence of either 1 μM H50 or PZ equimolar with ZPI, 25 μM lipid, and 5 mM CaCl2, in kinetics buffer at 25 °C in reaction volumes of 50 μl. After allowing sufficient time to reach a reaction end point, based on measured second-order associate rate constants (∼5–30 min), remaining proteolytic activity was measured by reacting an aliquot (5–20 μl) of the reaction mixtures with 1 ml of 100 μM Spectrozyme fXa (American Diagnostica) containing 50 μg/ml Polybrene and 5 mM EDTA and monitoring the rate of absorbance change at 405 nm. The apparent SI was determined from the fitted abscissa intercept of a linear plot of residual protease activity against the molar ratio of inhibitor to protease ([18]). Because the ZPI–PZ complex dissociates to a small extent over the reaction time, apparent SIs depend on the time of incubation. To correct for such complex dissociation, apparent SIs were multiplied by the factor, exp (−kd × t), where kd is the measured complex dissociation rate constant of 10^−4 s^−1 and t the fixed reaction time. Simulations verified the validity of this correction for small extents of dissociation. Reported SIs are average values of at least two independent measurements at different reaction times.

Row | Molecule | SI | ka,app × SI | ka,app × SI relative to WT
21 | B2 | 2.9 ± 0.2 moles ZPI/mole FXa | 2.7 ± 0.6 × 10^7 M^−1 s^−1 | (0.61)
22 | B3 | 2.6 ± 0.3 moles ZPI/mole FXa | 1.5 ± 0.2 × 10^7 M^−1 s^−1 | (0.34)
23 | B4 | 2.7 ± 0.1 moles ZPI/mole FXa | 2.6 ± 0.1 × 10^7 M^−1 s^−1 | (0.59)
24 | B5 | 3.3 ± 0.1 moles ZPI/mole FXa | 3.2 ± 0.4 × 10^7 M^−1 s^−1 | (0.73)
25 | B6 | 4.0 ± 0.3 moles ZPI/mole FXa | 4.4 ± 0.3 × 10^7 M^−1 s^−1 | (1.0)
26 | B7 | 6.6 ± 0.4 moles ZPI/mole FXa | 2.7 ± 0.4 × 10^7 M^−1 s^−1 | (0.61)

same assay, conditions: equimolar PZ, 25 μM phospholipid, 5 mM CaCl2, pH 7.4, 25 °C

Row | Molecule | ka,app
27 | B2 | 9.4 ± 1.4 × 10^6 M^−1 s^−1
28 | B3 | 5.6 ± 0.2 × 10^6 M^−1 s^−1
29 | B4 | 9.5 ± 0.1 × 10^6 M^−1 s^−1
30 | B5 | 9.8 ± 1.0 × 10^6 M^−1 s^−1
31 | B6 | 10.9 ± 0.1 × 10^6 M^−1 s^−1
32 | B7 | 4.1 ± 0.3 × 10^6 M^−1 s^−1

same assay, conditions: ratio of PZ-accelerated to unaccelerated ka,app × SI

Row | Molecule | PZ enhancement
33 | B1 | greatly abrogated the acceleration
34 | B2 | 2700
35 | B3 | 1153
36 | B4 | 1524
37 | B5 | 1778
38 | B6 | 2750
39 | B7 | 6000

biological target: T1, FXa; assay: Unaccelerated ZPI–FXa reactions: kinetics and stoichiometry of inhibition; type: biochemical; settings: not given
Protocol: as §1, §2, §3

Row | Molecule | SI | ka,app × SI | ka,app × SI relative to WT
40 | B1 | 2.6 ± 0.1 moles ZPI/mole FXa | 1.1 ± 0.1 × 10^4 M^−1 s^−1 | (0.69)
41 | B2 | 2.7 ± 0.2 moles ZPI/mole FXa | 1.0 ± 0.2 × 10^4 M^−1 s^−1 | (0.62)
42 | B3 | 2.4 ± 0.5 moles ZPI/mole FXa | 1.3 ± 0.4 × 10^4 M^−1 s^−1 | (0.81)
43 | B4 | 2.9 ± 0.2 moles ZPI/mole FXa | 1.7 ± 0.1 × 10^4 M^−1 s^−1 | (1.1)
44 | B5 | 2.4 ± 0.2 moles ZPI/mole FXa | 1.8 ± 0.2 × 10^4 M^−1 s^−1 | (1.1)
45 | B6 | 2.8 ± 0.4 moles ZPI/mole FXa | 1.6 ± 0.3 × 10^4 M^−1 s^−1 | (1)
46 | B7 | 4.0 ± 0.8 moles ZPI/mole FXa | 4.5 ± 1.8 × 10^3 M^−1 s^−1 | (0.28)

same assay, conditions: absence of PZ, 2.5 mM CaCl2, pH 7.4, 25 °C

Row | Molecule | ka,app
47 | B1 | 4.1 ± 0.2 × 10^3 M^−1 s^−1
48 | B2 | 3.8 ± 0.3 × 10^3 M^−1 s^−1
49 | B3 | 5.4 ± 0.3 × 10^3 M^−1 s^−1
50 | B4 | 5.8 ± 0.1 × 10^3 M^−1 s^−1
51 | B5 | 7.3 ± 0.4 × 10^3 M^−1 s^−1
52 | B6 | 5.6 ± 0.3 × 10^3 M^−1 s^−1
53 | B7 | 1.1 ± 0.2 × 10^3 M^−1 s^−1
